Assay results published in the supplement of paper PMC10065799, “High-throughput profiling of sequence recognition by tyrosine kinases and SH2 domains using bacterial peptide display” (eLife, 2023).

Assays:
[1] = target: MERTK (UniProt Q12866); experiment: phosphorylation enrichment, bacterial display (enrichment ratio); higher = better substrate or ligand; peptides without Tyr show the background
[2] = target: EPHB2 (UniProt P29323); experiment: as above
[3] = target: FGFR3 (UniProt P22607); experiment: as above
FGFR3, sequence (P22607 whole entry, looked up): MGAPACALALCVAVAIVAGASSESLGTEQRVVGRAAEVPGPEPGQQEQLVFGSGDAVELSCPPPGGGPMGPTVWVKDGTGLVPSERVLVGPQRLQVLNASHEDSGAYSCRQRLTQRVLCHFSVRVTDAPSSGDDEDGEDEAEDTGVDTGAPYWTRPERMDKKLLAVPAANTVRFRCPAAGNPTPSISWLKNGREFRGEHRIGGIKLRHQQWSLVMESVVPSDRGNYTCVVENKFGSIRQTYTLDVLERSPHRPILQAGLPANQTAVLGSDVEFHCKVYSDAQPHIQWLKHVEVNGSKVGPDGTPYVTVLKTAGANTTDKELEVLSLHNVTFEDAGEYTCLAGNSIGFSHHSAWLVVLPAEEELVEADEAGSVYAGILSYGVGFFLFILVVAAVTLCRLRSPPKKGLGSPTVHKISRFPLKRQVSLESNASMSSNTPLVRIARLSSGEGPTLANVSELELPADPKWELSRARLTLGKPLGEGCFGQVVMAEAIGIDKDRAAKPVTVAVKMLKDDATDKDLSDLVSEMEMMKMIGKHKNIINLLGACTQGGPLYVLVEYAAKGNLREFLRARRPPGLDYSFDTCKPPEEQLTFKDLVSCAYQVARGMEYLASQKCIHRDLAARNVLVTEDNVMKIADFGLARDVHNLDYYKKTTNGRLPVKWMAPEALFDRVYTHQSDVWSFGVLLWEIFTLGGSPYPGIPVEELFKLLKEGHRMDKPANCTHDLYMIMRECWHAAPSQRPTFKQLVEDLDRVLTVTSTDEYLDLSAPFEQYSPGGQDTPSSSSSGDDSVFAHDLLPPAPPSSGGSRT

[4] = target: FGFR1 (UniProt P11362); experiment: as above
FGFR1, sequence (P11362 whole entry, looked up): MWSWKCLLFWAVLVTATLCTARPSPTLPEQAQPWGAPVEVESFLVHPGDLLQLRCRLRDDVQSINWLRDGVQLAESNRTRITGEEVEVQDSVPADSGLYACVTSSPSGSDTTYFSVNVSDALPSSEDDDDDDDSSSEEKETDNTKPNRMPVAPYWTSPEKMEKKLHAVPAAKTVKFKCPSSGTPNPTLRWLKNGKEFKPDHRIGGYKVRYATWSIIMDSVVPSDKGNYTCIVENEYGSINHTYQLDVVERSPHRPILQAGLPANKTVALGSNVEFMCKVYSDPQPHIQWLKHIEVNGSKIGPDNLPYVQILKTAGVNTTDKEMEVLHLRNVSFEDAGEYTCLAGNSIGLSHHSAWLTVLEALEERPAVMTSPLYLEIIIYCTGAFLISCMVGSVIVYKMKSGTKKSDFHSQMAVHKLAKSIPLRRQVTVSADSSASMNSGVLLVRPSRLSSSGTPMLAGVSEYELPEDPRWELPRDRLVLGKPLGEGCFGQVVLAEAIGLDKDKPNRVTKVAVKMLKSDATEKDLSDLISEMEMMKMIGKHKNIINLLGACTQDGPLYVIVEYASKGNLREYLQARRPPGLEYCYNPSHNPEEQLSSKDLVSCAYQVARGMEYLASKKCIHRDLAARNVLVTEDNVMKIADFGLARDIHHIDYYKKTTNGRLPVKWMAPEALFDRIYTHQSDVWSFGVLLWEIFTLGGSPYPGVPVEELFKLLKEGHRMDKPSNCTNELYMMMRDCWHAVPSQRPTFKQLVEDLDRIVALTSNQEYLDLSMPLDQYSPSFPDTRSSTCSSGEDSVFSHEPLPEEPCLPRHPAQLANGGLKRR

[5] = system: c-Abl (mouse); experiment: as above
[6] = target: Jak2 (UniProt O60674); experiment: as above
[7] = system: c-Src; experiment: as above
[8] = system: Fer (mouse); experiment: as above
[9] = target: Fyn (UniProt P06241); experiment: as above
Fyn, sequence (P06241 whole entry, looked up): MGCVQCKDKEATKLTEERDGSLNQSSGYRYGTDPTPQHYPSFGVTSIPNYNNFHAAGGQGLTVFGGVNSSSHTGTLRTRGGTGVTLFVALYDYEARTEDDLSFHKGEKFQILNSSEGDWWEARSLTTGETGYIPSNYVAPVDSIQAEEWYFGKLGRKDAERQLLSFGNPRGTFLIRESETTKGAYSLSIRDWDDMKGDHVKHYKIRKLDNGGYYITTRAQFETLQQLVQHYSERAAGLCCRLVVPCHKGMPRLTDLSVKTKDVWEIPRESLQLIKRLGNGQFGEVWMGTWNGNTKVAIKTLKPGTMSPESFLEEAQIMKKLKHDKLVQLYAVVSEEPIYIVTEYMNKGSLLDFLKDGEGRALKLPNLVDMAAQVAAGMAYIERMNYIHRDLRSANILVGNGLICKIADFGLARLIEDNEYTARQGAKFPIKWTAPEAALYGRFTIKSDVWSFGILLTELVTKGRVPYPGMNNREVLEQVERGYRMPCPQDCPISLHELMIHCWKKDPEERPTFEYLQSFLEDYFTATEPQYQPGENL

[10] = target: Hck (UniProt P08631); experiment: as above
Hck, sequence (P08631 whole entry, looked up): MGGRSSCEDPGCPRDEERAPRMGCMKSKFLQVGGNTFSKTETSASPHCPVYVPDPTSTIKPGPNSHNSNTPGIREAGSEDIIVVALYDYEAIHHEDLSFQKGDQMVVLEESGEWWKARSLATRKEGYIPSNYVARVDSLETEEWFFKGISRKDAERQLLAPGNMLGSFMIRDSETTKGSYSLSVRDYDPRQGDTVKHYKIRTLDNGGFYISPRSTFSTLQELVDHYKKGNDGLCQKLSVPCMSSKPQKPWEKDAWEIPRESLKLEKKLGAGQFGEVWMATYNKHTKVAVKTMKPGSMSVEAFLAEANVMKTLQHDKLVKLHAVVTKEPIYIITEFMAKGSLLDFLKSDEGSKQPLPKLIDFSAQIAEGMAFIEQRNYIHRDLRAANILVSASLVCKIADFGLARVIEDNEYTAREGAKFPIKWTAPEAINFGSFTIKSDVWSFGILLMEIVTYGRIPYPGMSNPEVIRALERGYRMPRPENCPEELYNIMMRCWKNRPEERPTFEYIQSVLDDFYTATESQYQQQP

[11] = target: Fes (UniProt P07332); experiment: as above
[12] = target: EPHB1 (UniProt P54762); experiment: as above
EPHB1, sequence (P54762 whole entry, looked up): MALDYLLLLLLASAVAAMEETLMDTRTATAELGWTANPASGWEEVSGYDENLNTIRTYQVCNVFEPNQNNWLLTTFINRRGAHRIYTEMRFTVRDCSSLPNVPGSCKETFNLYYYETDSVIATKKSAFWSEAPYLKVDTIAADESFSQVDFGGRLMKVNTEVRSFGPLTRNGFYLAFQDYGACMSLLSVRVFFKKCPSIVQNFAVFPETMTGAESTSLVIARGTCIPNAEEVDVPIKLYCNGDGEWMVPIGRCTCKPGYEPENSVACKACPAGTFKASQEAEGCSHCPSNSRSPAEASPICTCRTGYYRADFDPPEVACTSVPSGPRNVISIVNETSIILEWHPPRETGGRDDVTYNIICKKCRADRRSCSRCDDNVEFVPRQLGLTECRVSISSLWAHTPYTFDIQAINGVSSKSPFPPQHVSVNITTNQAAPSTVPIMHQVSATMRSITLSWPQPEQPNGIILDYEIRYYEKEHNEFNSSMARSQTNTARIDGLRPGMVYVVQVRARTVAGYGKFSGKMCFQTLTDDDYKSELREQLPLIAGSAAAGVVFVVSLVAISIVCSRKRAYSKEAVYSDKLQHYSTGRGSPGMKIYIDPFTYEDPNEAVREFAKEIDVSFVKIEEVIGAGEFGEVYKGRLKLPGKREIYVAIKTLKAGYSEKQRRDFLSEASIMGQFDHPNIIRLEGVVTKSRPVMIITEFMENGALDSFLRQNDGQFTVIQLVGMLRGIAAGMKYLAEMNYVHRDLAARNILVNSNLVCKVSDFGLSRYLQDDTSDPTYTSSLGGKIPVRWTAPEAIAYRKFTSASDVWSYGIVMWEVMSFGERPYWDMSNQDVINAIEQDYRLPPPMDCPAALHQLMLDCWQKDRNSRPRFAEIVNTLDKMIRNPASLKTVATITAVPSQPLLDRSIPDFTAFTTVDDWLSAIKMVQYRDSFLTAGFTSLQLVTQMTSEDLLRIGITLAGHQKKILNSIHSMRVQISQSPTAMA

[13] = system: AncSZ; experiment: as above
[14] = target: c-Src SH2; experiment: SH2 binding enrichment of the phosphorylated peptide, bacterial display (enrichment ratio); higher = better substrate or ligand; peptides without Tyr show the background
[15] = target: Grb2 SH2 (UniProt P62993); experiment: as above
Grb2 SH2, sequence (P62993 whole entry, looked up): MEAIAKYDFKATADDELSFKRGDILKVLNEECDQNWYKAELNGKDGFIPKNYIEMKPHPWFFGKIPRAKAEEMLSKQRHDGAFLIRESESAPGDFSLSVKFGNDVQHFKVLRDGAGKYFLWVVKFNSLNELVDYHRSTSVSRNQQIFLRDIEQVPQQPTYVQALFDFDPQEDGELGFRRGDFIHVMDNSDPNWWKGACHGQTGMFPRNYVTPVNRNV

[16] = target: SHP2-C SH2; experiment: as above
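Wherever SH2 binding enrichment of the phosphorylated peptide, bacterial display is given: peptide library displayed on the E. coli surface as eCPX fusions, selected cells deep-sequenced, score is each peptide's frequency after selection divided by its frequency in the input.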
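Wherever phosphorylation enrichment, bacterial display is given: 11-residue human phosphosite peptides and single-mutation variants displayed on the E. coli surface, counted by deep sequencing, each peptide's frequency after selection divided by its frequency in the unselected input library; frequency after pTyr selection over input frequency; kinase dosed for 20-30% of maximal phosphorylation in three min.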

EPHB2, sequence (P29323 whole entry, looked up): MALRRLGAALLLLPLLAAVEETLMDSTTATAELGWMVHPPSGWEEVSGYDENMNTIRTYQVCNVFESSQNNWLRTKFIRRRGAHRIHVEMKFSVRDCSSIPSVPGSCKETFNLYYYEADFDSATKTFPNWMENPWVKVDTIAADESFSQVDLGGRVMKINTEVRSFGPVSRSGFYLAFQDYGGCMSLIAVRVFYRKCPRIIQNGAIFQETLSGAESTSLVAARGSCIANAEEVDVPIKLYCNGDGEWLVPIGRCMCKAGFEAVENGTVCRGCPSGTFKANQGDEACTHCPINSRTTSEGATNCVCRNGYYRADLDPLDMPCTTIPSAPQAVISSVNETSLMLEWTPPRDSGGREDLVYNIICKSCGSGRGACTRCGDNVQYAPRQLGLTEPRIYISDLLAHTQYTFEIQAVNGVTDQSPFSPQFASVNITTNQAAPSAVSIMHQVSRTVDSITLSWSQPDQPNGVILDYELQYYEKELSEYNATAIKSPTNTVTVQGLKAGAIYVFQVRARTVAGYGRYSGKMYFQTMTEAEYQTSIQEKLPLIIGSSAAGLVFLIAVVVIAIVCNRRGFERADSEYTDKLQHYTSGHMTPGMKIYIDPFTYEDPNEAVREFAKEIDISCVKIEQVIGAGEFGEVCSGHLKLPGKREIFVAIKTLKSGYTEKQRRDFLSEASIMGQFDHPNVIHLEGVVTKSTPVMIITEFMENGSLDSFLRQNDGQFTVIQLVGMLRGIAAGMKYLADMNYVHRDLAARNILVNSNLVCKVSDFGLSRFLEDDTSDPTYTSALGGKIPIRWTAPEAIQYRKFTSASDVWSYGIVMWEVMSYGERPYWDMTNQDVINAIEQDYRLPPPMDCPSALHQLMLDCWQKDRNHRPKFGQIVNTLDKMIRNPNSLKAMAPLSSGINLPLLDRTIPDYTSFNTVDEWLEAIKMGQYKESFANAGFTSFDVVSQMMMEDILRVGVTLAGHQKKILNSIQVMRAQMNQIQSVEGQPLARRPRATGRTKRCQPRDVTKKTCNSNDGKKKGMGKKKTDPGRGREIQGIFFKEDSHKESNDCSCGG

Sequence	phosphorylation enrichment [1]	phosphorylation enrichment [2]	phosphorylation enrichment [3]	phosphorylation enrichment [4]	phosphorylation enrichment [5]	phosphorylation enrichment [6]	phosphorylation enrichment [7]	phosphorylation enrichment [8]	phosphorylation enrichment [9]	phosphorylation enrichment [10]	phosphorylation enrichment [11]	phosphorylation enrichment [12]	phosphorylation enrichment [13]	SH2 binding enrichment [14]	SH2 binding enrichment [15]	SH2 binding enrichment [16]
AGTILYHAHLG [ASS1_Y291_D296G]	0.863	0.633	0.625	0.517	0.727	0.816	0.549	0.495	0.564	0.61	1.07	0.534	0.819	0.483	0.737	0.543
FGSSSSGGAGG [RPA2_Y14_Y14S_YF]	0.394	0.31	0.455	0.409	0.511	0.669	0.458	0.417	0.419	0.312	0.638	0.287	0.499	0.358	0.854	0.622
ADDSFYTARSA [ZAP70_Y493_YF]	0.681	0.534	0.904	0.55	0.561	0.877	0.707	0.451	0.711	1.01	0.993	0.597	0.822	0.419	0.883	1.55
RNVYYYSYLLK [PTEN_Y178_Y174N]	11.5	5.19	8.38	9.89	9.24	8.72	7.3	1.59	3.94	5.15	2.56	8.15	3.58	1.61	1.5	2.1
ELTSVYDSRAR [SENP1_Y349]	0.52	0.507	0.574	0.491	0.557	0.592	1.03	0.432	0.697	1.62	0.624	0.35	0.585	0.397	0.761	0.395
SVVVRYEPPEV [TP53_Y220_P219R]	0.425	0.503	0.517	0.409	0.747	0.705	0.386	0.466	0.371	0.42	0.902	0.445	0.892	0.882	0.967	0.775
NGSKGYAYVHF [PABPC5_Y147]	0.519	0.61	0.718	0.736	0.707	0.961	0.456	0.516	0.493	0.499	0.904	0.553	1.08	12.1	0.826	19.3
EQKKFYNATKK [SCN5A_Y1495_M1498T_YF]	0.404	0.348	0.487	0.412	0.497	0.436	0.554	0.374	0.437	0.449	0.674	0.383	0.668	0.606	0.996	0.729
CTTIHYNYMCN [TP53_Y234]	0.485	0.696	0.692	0.539	0.471	0.661	0.469	0.557	0.453	0.482	0.903	0.762	0.853	4.14	1.25	2.41
NELTFYCFKKD [CD59_Y87_C89Y_YF]	0.381	0.492	0.614	0.456	0.758	1.12	0.35	0.591	0.412	0.448	1.22	0.541	0.96	0.404	0.754	0.504
RHIEKYVDQGK [IRAK3_Y61]	0.59	0.318	0.633	0.512	0.783	0.857	0.687	0.593	0.533	0.74	0.833	0.577	0.771	0.605	0.993	0.834
QGIYGYHHHMQ [UFSP2_Y287_Y290H]	9.93	4.59	0.653	0.613	4.62	0.598	7.86	10.9	9.98	9.07	0.923	2.34	0.932	1.07	1.09	1.07
GQAPGYSYTAA [CYCS_Y47]	0.438	0.5	0.481	0.43	0.56	0.615	0.416	0.433	0.471	0.502	0.665	0.483	0.601	0.791	0.873	0.659
PQAVRYIYTID [DCX_Y103_G100A]	1.72	0.722	0.74	0.723	1.01	0.983	6.46	0.67	7.37	3.66	1.42	0.74	1.12	0.644	0.882	17.1
LLKAGYQGVLR [TTPA_Y100_H101Q]	0.459	0.366	0.565	0.67	0.442	0.55	0.311	0.425	0.265	0.713	0.73	0.648	0.502	1.23	1.38	1.3
LMLVLYGRIFR [HTR1A_Y215]	0.475	0.958	0.809	0.372	0.791	1.48	0.644	0.768	0.715	0.495	1.24	0.646	1.84	1.42	1.54	1.25
DRLAVYIDRVR [LMNA_Y45]	0.41	0.554	0.745	0.418	0.61	0.892	0.359	0.488	0.476	0.434	1.11	0.542	1.24	0.682	1.07	0.861
TLSGTYQFIIA [FOXL2_Y81_I80T_YF]	2.89	0.924	1.9	2.22	0.611	0.732	0.892	1.44	0.814	1.34	1.05	1.31	1.27	1.11	0.968	1.13
SVVVPDEPPEV [TP53_Y220_Y220D]	0.586	0.665	0.687	0.724	0.782	1.19	0.522	0.647	0.582	0.567	1.39	0.706	1.33	0.576	0.755	0.794
RGGWVYVLHPT [TRMT61A_Y67]	0.493	0.856	1.03	0.853	0.702	1.2	0.895	0.766	1.25	0.909	1.66	1.07	1.8	0.573	0.99	0.787
HRNGMYGLHQD [SGSH_Y89_Q85R]	0.396	0.51	0.421	0.485	0.502	0.626	0.389	0.432	0.49	0.294	0.428	0.39	0.515	0.631	0.939	0.751
LVQAEYWHDPI [PPT1_Y185]	0.591	0.487	2.98	3.89	1.36	1.18	0.61	0.644	0.58	0.593	1.48	0.677	1.48	1.11	0.824	0.638
ETKKQYNSFTY [TMED3_Y85_D86N]	0.463	0.434	0.455	0.496	0.435	0.54	0.491	0.434	0.592	0.423	0.753	0.436	0.617	1.03	1.1	0.704
NHRNQYQALKT [CLSPN_Y887_P892T]	0.4	0.43	0.439	0.503	0.753	0.48	0.364	0.499	0.451	0.506	0.656	0.422	0.536	1.17	0.994	1
RAFRRYLLKQK [SCN2A_Y1919_YF]	0.971	0.61	0.865	0.617	0.531	0.712	0.671	0.675	0.696	0.63	0.703	0.535	0.708	0.454	0.829	0.44
EYQLPYYNTVP [BMPR1A_Y457_M460T]	2.31	1.19	5.15	7.09	2.54	5.82	5.66	1.94	1.42	1.93	1.05	0.966	4.46	6.88	9.47	0.872
QLYGAYLRIHA [BSCL2_Y213]	0.905	1.3	1.12	1.02	0.915	1.2	3.58	0.536	7.21	4.32	1.68	1	1.95	1.13	1.27	1.35
CTTIHSNFMCN [TP53_Y234_Y234S_YF]	0.405	0.555	0.55	0.508	0.507	0.729	0.454	0.429	0.416	0.43	0.832	0.448	0.695	0.988	0.924	0.914
KNKNRYKNVLP [PTPN11_Y279_I282V]	0.473	0.398	0.716	0.419	0.881	0.767	0.449	0.414	0.372	0.412	0.593	0.426	0.551	0.803	0.734	0.886
